According to US6972178B1, “Drug screening using a proline-rich nuclear receptor co-regulatory protein/nuclear receptor co-expression system” (City of Hope, priority 1999, dated 2005):
Entries after “also recorded” stand apart in the source; their conditions may differ. Ends that are not written are not given here.

Tests used:
[1] = molecular target: T1, SF1 (Bos taurus, UniProt Q04752); assay: Yeast two-hybrid assay (HIS3 / β-galactosidase reporter); format: cell-based, bovine; set-up: The coding region for the wild type bovine SF1 was first subcloned into a yeast expression vector, pGBT9; expressed in transfected cells; host or cells: yeast (Y187, or Y187 x CG1945 diploids); details: no ligand
Protocol: (§1) The protein-protein interactions between the full-length PNRC or PNRC fragments and SF1, ERRα1, and several other nuclear receptors were analyzed by yeast two-hybrid assays. The yeast two-hybrid assay was used to test if PNRC also interacts with other members of the nuclear receptor superfamily. pGBT9-ERRα-1 yeast expression plasmid was prepared by inserting the PCR-amplified ERRA-1 coding region into pGBT9 through an EcoRI site. To construct the plasmid pGBT9-ER274-595, the coding sequence from amino acids 274 to 595 (LBD) of ERα was amplified by PCR with the sense primer 5′-[…]-3′ (SEQ ID NO:1) and antisense primer 5′-[…]-3′ (SEQ ID NO:2) and cloned into the EcoRI/,SalI site of the pGBT9 yeast expression plasmid. pSG5-GRIP1 and several yeast expression plasmids coding for fusion proteins of Gal4-DBD and HBDs of AR, GR, PR, TR, RAR, and RXR in pGBT9 vector were kindly provided by Dr. Michael R. Stallcup (University of Southern California, Los Angeles, Calif.) (Voegel et al., 1996; Hong et al., 1996; Ding et al., 1998). The yeast mating approach was used in yeast two-hybrid assays to study protein-protein interactions as described in Clontech's protocol. Briefly, pGBT9 (DNA-BD vector only), pGBT9/target plasnmids for SF1, ERRα1, and other HBDs of nuclear receptors, and DNA-BD/control plasmids (as negative control) were introduced into the reporter strain Y187, and the AD vector alone or wild type PNRC and its deleted fragments-containing pACT2 derivatives were used to transform yeast strain CG1945. The yeast mating was performed by picking one colony from each type and growing both colonies in liquid YPD medium with or without a proper ligand at the following concentrations: 100 nM of estradiol for ER; 10 μM of deoxycorticosterone for GR; 100 nM of dihydrotestosterone for AR; 500 nM of progesterone for PR; 10 μM of T3 for TR; 10 μM of all-trans-retinoic acid for RAR; and 10 μM of 9-cis-retinoic acid for RXR. The same amount of an aliquot of the mating culture was spread on both SD/-Leu/-Trp plates to select diploid strains bearing both plasmids and SD/-Leu/-Trp/-His/+3-AT plates to score the growth of the diploid cells that express the two interacting target proteins. The His3 positive colonies were further analyzed for β-galactosidase activity by liquid β-galactosidase activity measurement as essentially described in the protocol.
(§2) Yeast strains Y187 expressing the Gal4DB fusion to the nuclear receptors and CG1945expressing Gal4AD alone or Gal4AD-PNRC fusion protein were mated by co-culturing, and selected for the presence of both two-hybrid plasmids. The expression of interacting hybrid proteins in yeast diploids was analyzed to determine if there was induction of HIS3 expression as shown in FIG. 1A and LacZ expression as shown in FIGS. 1B and 1C. […] As shown in FIGS. 1A-C, PNRC also interacted specifically with all seven nuclear receptor HBDs, including ER, AR, GR, TR, PR, RAR and RXR, and these interactions were completely ligand-dependent. […] However, no interactions occurred either between PNRC and an irrelevant protein such as human lamin C protein or between nuclear receptors and Gal4activation domain alone.

[2] = molecular target: T1, SF1; assay: Mammalian two-hybrid assay in SK-BR-3 cells (CAT reporter); format: cell-based, bovine; set-up: expressed in transfected cells; host or cells: SK-BR-3
Protocol: The Mammalian MatchMaker two-hybrid assay system (Clontech) was used to confirm the interaction between PNRC and SF1 that was identified in the yeast assays. Because the assays are performed in mammalian cells, proteins are more likely to be in their native conformations, and the results are therefore more likely to represent biologically significant interactions. SK-BR-3 breast cancer cells were cotransfected with three expression plasmids, including pM-SF1 for Gal4 DNA-DB/SF1 fusion protein, pVP16-PNRC for VP16AD-PNRC fusion protein, and a third vector, pG5CAT, to provide the Gal4 DNA-binding site, a promoter, and the CAT reporter gene.
A set of plasmids, named pM-SF1, pVP16-PNRC, pVP16-PNRC270-327, and pVP16-PNRC278-300, for mammalian two-hybrid assays were prepared as follows: SF1 cDNA fragment was excised from pGBT9-SF1 and inserted in frame into Gal4 DNA-binding domain vector pM (Clontech) through an EcoRI site. PCR was used to generate PNRC full length coding region as well as the above mentioned deleted fragments with BclI at both ends. The PCR products were digested with BclI and inserted in proper reading frame into a pVP16 activation domain vector (Clontech) at a BamHI site. Mammalian two-hybrid assays in SK-BR-3 cells were performed according to the procedures described in the Clontech protocol (PT3002-1).

[3] = molecular target: T1, SF1; assay: GST pull-down binding assay; set-up: The coding region for the wild type bovine SF1 was first subcloned into a yeast expression vector, pGBT9; expressed in transfected cells; host or cells: yeast (Y187, or Y187 x CG1945 diploids); species or system bovine; details: GST fusion on glutathione Sepharose beads, 2 hour at 4° C.
Protocol: To further confirm the interaction between PNRC and SF1 which was detected in both the yeast and the mammalian two-hybrid assays, a GST pull-down binding assay was performed to study the direct binding between PNRC and SF1 in vitro. The PNRC cDNA fragments were generated by PCR and inserted into E. coli expression vector pGEX2TK (Pharnacia) through a BamHI site to express GST-PNRC wild type and deletion mutants fusion proteins. Wild type bovine SF1 cDNA in pSG5 vector was translated in vitro in the presence of [^35S]methionine using the TNT Coupled Reticulocyte Lysate System (Promega, Madison, Wis.). GST and deleted PNRC fusion proteins, GST-PNRC270-327 and GST-PNRC278-300, were prepared using the affinity matrix Glutathione Sepharose 4B (Pharmacia) according to the supplier's instructions. The washed beads containing about 10 μg GST fusion protein were incubated for 2 hour at 4° C. with 4 μl in vitro translated, [^35S]methionine-labeled SF1 in a total volume of 150 μl incubation buffer (50 mM Kpi, pH 7.4, 100 mM NaCl, 1 mM MgCl2, 10% glycerol, 0.1% Tween 20, 1.5% BSA) (Treuter et al., 1998). […]
PNRC fragments, including PNRC270-327 and PNRC278-300 were expressed as fusion proteins with glutathione S-transferase (GST) in E. coli BL21, purified with glutathione Sepharose 4B beads, and tested for their ability to bind in vitro translated [^35S]methionine-labeled SF1 in pull-down assays.

[4] = tested on: PR HBD; assay: Yeast two-hybrid assay (HIS3 / β-galactosidase reporter); format: cell-based; details: 500 nM of progesterone
Protocol: as §1, §2

[5] = tested on: RAR HBD; assay: as above; format: cell-based; details: 10 μM of all-trans-retinoic acid
Protocol: as §1, §2

[6] = tested on: RXR HBD; assay: as above; format: cell-based; details: 10 μM of 9-cis-retinoic acid
Protocol: as §1, §2

[7] = tested on: TR HBD; assay: as above; format: cell-based; details: 10 μM of T3
Protocol: as §1, §2

[8] = molecular target: T2, Gal4AD-PNRC fusion protein (full-length proline-rich nuclear receptor co-regulatory protein) (human, UniProt Q12796 1-327); assay: yeast two-hybrid (HIS3 and LacZ reporters)
T2 construct: Yeast two-hybrid prey; also called wild type PNRC in pACT2; B4-2

[9] = molecular target: T3, Gal4 DNA-DB/SF1 fusion protein (pM-SF1) (bovine, UniProt P04386 1-147; Q04752 1-461); assay: mammalian two-hybrid, CAT reporter, SK-BR-3 cells
T3 construct: Mammalian two-hybrid construct, expressed in SK-BR-3 cells

[10] = molecular target: T4, Gal4DBD-SF1 fusion protein (bovine steroidogenic factor 1, pGBT9-SF1) (bovine, UniProt P04386 1-147; Q04752 1-461); assay: yeast two-hybrid (HIS3 and LacZ reporters)
T4 construct: Yeast two-hybrid bait; whole wild type coding region; also called DBDGal4-SF1

[11] = molecular target: Gal4DBD-ERRα1 fusion protein (estrogen related receptor α-1, pGBT9-ERRα-1) (UniProt P04386 1-147; P11474 1-423); assay: yeast two-hybrid (HIS3 and LacZ reporters)
[12] = molecular target: T5, Gal4DBD fusion of ERα ligand-binding domain, amino acids 274 to 595 (pGBT9-ER274-595) (UniProt P04386 1-147; P03372 274-595); assay: yeast two-hybrid (HIS3 and LacZ reporters)
T5 construct: Tested with 100 nM estradiol; also called ER HBD

T1 sequence (Q04752 whole entry, the tested form may be a part): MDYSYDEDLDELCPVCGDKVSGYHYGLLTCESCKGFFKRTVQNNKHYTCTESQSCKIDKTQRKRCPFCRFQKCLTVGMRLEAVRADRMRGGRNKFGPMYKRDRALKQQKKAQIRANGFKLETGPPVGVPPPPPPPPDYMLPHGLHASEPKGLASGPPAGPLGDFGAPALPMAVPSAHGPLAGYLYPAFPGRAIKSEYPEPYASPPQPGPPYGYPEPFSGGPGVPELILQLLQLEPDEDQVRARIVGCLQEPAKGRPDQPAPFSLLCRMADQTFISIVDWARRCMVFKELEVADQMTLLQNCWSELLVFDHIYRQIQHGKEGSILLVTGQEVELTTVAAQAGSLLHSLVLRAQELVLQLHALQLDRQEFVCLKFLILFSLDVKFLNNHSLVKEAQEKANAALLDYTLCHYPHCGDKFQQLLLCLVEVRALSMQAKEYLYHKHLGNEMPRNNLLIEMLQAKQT
T2 sequence (Q12796 whole entry, the tested form may be a part): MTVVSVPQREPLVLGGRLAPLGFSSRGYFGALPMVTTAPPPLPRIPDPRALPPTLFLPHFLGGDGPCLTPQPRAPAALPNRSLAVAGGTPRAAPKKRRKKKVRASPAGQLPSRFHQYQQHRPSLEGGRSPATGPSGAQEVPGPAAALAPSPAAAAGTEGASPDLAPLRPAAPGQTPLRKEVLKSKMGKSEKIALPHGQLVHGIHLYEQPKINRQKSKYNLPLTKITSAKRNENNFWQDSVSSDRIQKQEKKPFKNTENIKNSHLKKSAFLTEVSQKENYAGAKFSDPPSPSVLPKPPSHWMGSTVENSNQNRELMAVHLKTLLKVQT
Chain of PR HBD (P06401 679-933 limits assumed): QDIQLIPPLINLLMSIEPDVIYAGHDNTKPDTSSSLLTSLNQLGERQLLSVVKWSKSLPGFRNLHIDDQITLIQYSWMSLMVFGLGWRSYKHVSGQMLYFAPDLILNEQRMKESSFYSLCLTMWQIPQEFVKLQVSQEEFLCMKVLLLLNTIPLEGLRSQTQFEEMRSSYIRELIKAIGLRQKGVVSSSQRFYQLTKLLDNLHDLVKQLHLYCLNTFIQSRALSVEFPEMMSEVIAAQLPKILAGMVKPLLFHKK

PNRC/270-317: PNRC fragment aa 270-317 lacking the NR box, Gal4 AD fusion protein
interaction with SF1 [1]: about the same

NR box: NR box-like sequence LKTLL (aa 319-323; SEQ ID NO:4) of PNRC as fusion protein with Gal4 AD (not fully specified; UniProt Q12796 319-323, looked up, fragment)
interaction with SF1 [1]: No interaction was observed

PNRC301-327: PNRC fragment aa 301-327 containing the NR box, Gal4AD fusion protein
interaction with SF1 [1]: could not interact with SF1

PNRC278-300: 23-amino acid PNRC region aa 278-300 (SEQ ID NO:9), expressed as Gal4AD, VP16 or GST fusion protein (NYAGAKFSDPPSPSVLPKPPSHW; listed as Homo sapiens)
interaction with SF1 in mammalian two-hybrid assay [2]: retain most of the interaction of full length PNRC to SF1
interaction with SF1 [1]: able to interact with SF1
binding of in vitro translated 35S-labeled SF1 [3]: found to bind SF1

PNRC278-300 (mutant): PNRC278-300 carrying double mutations P287A and P290A (S-D-A-P-S-A-S, SEQ ID NO:6) (SDAPSAS; MUTAGEN (3) This residue has been changed from a proline.; listed as Homo sapiens)
interaction with PR [4]: almost completely abolished the interactions
interaction with RAR [5]: almost completely abolished the interactions
interaction with RXR [6]: almost completely abolished the interactions
interaction with TR [7]: almost completely abolished the interactions
interaction with SF1 [1]: almost completely abolished the interactions

PNRC/270-327: C-terminal PNRC fragment aa 270-327, expressed as Gal4AD, VP16 or GST fusion protein
interaction with SF1 [1]: about the same; also recorded: stronger than the interaction between PNRC/278-300 and SF1
binding of in vitro translated 35S-labeled SF1 [3]: found to bind SF1

B1: human lamin C protein (irrelevant protein, DNA-BD/control plasmid) (other, UniProt P04386 1-147, looked up)
chain: MKLLSSIEQACDICRLKKLKCSKEKPKCAKCLKNNWECRYSPKTKRSPLTRAHLTEVESRLERLEQLFLLIFPREDLDMILKMDSLQDIKALLTGLFVQDNVNKDAVTDRLASVETDMPLTLRQHRISATSSSEESSNKGQRQLTVSSEEVVSREVSGIKAAYEAELGDARKTLDSVAKERARLQLELSKVREEFKELKARNTKKEGDLIAAQARLKDLEALLNSKEAALSTALSEKRTLEGELHDLRGQVAKLEAALGEAKKQLQDEMLRRVDAENRLQTMKEELDFQKNIYSEELRETKRRHETRLVEID
notes: that lamin C is the DNA-BD control fusion is inferred from these two statements
binding result [8]: no binding

B2: VP16 activation domain alone (other)
chain: STAPPTDVSLGDELHLDGEDVAMAHADALDDFDLDMLGDGDSPGP
notes: Control of the mammalian two-hybrid assay; also called VP16 AD
binding result [9]: no binding

B3: Gal4 activation domain alone (other, UniProt P04386 768-881, looked up)
chain: ANFNQSGNIADSSLSFTFTNSSNGPNLITTQTNSQALSQPIASSNVHDNFMNNEITASKIDDGNNSKPLSPGWTDQTAYNAFGITTGMFNTTTMDDVYNYLFDDEDTPPNPKKE
notes: Control of the yeast two-hybrid assays; also called Gal4AD; AD vector alone
binding result [10]: no binding
binding result [11]: no binding
binding result [12]: no binding
